Source: patent US8728478
Where “and” joins values, the source holds several entries; their conditions need not be identical. Equal values may be shown once.

Legend:
[1] = target: Escherichia coli heat-stable enterotoxin A (STa), purified from a bovine ETEC K99+ isolate (Escherichia coli (ETEC isolated from a diarrheic neonatal calf))
[2] = target: Escherichia coli heat-stable enterotoxin A (STa), purified from a bovine ETEC K99+ isolate (Escherichia coli (ETEC isolated from a diarrheic neonatal calf)); assay: STa-binding indirect ELISA, end titer
[3] = target: Escherichia coli heat-stable enterotoxin A (STa), purified from a bovine ETEC K99+ isolate (Escherichia coli (ETEC isolated from a diarrheic neonatal calf)); assay: avidity ELISA on plate-bound STa, 5 M ammonium thiocyanate, Baseline
[4] = target: Escherichia coli heat-stable enterotoxin A (STa), purified from a bovine ETEC K99+ isolate (Escherichia coli (ETEC isolated from a diarrheic neonatal calf)); assay: indirect ELISA on plate-bound STa, serum dilution 10^-3, pre-immunization serum
[5] = target: Escherichia coli heat-stable enterotoxin A (STa), purified from a bovine ETEC K99+ isolate (Escherichia coli (ETEC isolated from a diarrheic neonatal calf)); assay: indirect ELISA on plate-bound STa, serum dilution 10^-4, pre-immunization serum
[6] = target: Escherichia coli heat-stable enterotoxin A (STa), purified from a bovine ETEC K99+ isolate (Escherichia coli (ETEC isolated from a diarrheic neonatal calf)); assay: indirect ELISA on plate-bound STa, serum dilution 10^-5, pre-immunization serum
[7] = target: Escherichia coli heat-stable enterotoxin A (STa), purified from a bovine ETEC K99+ isolate (Escherichia coli (ETEC isolated from a diarrheic neonatal calf)); assay: indirect ELISA on plate-bound STa, serum dilution 10^-6, pre-immunization serum

For “baseline (pre-immunization) rabbit serum (antibody)”, the Avidity Index (%) [1] was 4.7% and 3% and 0%, the ELISA Titer (reciprocal serum dilution) [2] was 0 and the OD at 405 nm with 5 M ammonium thiocyanate [3] was 0.017 OD and 0.043 OD and 0.04 OD. For the same substance, the mean OD (405 nm) [4] was 0.864 OD, the mean OD (405 nm) [5] was 0.232 OD and the mean OD (405 nm) [6] was 0.033 OD. It also gave a mean OD (405 nm) [7] of 0.039 OD.
